Results on three proteins are retold here after PMC5081176.

Test in all cases: purified protein
Common to all, as to assay type: biochemical, Homo sapiens

Substrate in data set [1]: Nc1ccn([C@H]2C[C@H](O)[C@@H](COP(=O)(O)OP(=O)(O)OP(=O)(O)O)O2)c(=O)n1
The conditions noted are these: opposite O2-Me-dT template, Mg2+, pH 8.0, 37 °C.

Substrate in data set [2]: Nc1nc2c(ncn2[C@H]2C[C@H](O)[C@@H](COP(=O)(O)OP(=O)(O)OP(=O)(O)O)O2)c(=O)[nH]1
Conditions: opposite O2-Me-dT template, Mg2+, pH 8.0, 37 °C.

Substrate in data set [3]: Nc1ncnc2c1ncn2[C@H]1C[C@H](O)[C@@H](COP(=O)(O)OP(=O)(O)OP(=O)(O)O)O1
Conditions: opposite undamaged template dT (P15/T24), Mg2+, pH 8.0, 37 °C.

B1: pol η (Homo sapiens) (protein)
chain: MATGQDRVVALVDMDCFFVQVEQRQNPHLRNKPCAVVQYKSWKGGGIIAVSYEARAFGVTRSMWADDAKKLCPDLLLAQVRESRGKANLTKYREASVEVMEIMSRFAVIERASIDEAYVDLTSAVQERLQKLQGQPISADLLPSTYIEGLPQGPTTAEETVQKEGMRKQGLFQWLDSLQIDNLTSPDLQLTVGAVIVEEMRAAIERETGFQCSAGISHNKVLAKLACGLNKPNRQTLVSHGSVPQLFSQMPIRKIRSLGGKLGASVIEILGIEYMGELTQFTESQLQSHFGEKNGSWLYAMCRGIEHDPVKPRQLPKTIGCSKNFPGKTALATREQVQWWLLQLAQELEERLTKDRNDNDRVATQLVVSIRVQGDKRLSSLRRCCALTRYDAHKMSHDAFTVIKNCNTSGIQTEWSPPLTMLFLCATKFSASAPSSSTDITSFLSSDPSSLPKVPVTSSEAKTQGSGPAVTATKKATTSLESFFQKAAERQKVKEASLSSLTAPTQAPMSNSPSKPSLPFQTSQSTGTEPFFKQKSLLLKQKQLNNSSVSSPQQNPWSNCKALPNSLPTEYPGCVPVCEGVSKLEESSKATPAEMDLAHNSQSMHASSASKSVLEVTQKATPNPSLLAAEDQVPCEKCGSLVPVWDMPEHMDYHFALELQKSFLQPHSSNPQVVSAVSHQGKRNPKSPLACTNKRPRPEGMQTLESFFKPLTH
On to B1, for which, in data set [1], the Km was 130.2 ± 11.4 µM, the kcat was 0.00113 ± 5e-05 s⁻¹ and the kcat/Km was 8.67 ± 0.333 M⁻¹ s⁻¹. In data set [2], the Km came out at 38.4 ± 1.8 µM, the kcat amounted to 0.00065 ± 1.67e-05 s⁻¹ and the kcat/Km was determined as 17.5 ± 0.667 M⁻¹ s⁻¹. In data set [3], the Km is 5.3 ± 0.3 µM, the kcat came to 0.817 ± 0.0333 s⁻¹ and the kcat/Km was determined as 154000 ± 3830 M⁻¹ s⁻¹.

B2: pol ι (Homo sapiens) (protein)
chain: MEKLGVEPEEEGGGDDDEEDAEAWAMELADVGAAASSQGVHDQVLPTPNASSRVIVHVDLDCFYAQVEMISNPELKDKPLGVQQKYLVVTCNYEARKLGVKKLMNVRDAKEKCPQLVLVNGEDLTRYREMSYKVTELLEEFSPVVERLGFDENFVDLTEMVEKRLQQLQSDELSAVTVSGHVYNNQSINLLDVLHIRLLVGSQIAAEMREAMYNQLGLTGCAGVASNKLLAKLVSGVFKPNQQTVLLPESCQHLIHSLNHIKEIPGIGYKTAKCLEALGINSVRDLQTFSPKILEKELGISVAQRIQKLSFGEDNSPVILSGPPQSFSEEDSFKKCSSEVEAKNKIEELLASLLNRVCQDGRKPHTVRLIIRRYSSEKHYGRESRQCPIPSHVIQKLGTGNYDVMTPMVDILMKLFRNMVNVKMPFHLTLLSVCFCNLKALNTAKKGLIDYYLMPSLSTTSRSGKHSFKMKDTHMEDFPKDKETNRDFLPSGRIESTRTRESPLDTTNFSKEKDINEFPLCSLPEGVDQEVFKQLPVDIQEEILSGKSREKFQGKGSVSCPLHASRGVLSFFSKKQMQDIPINPRDHLSSSKQVSSVSPCEPGTSGFNSSSSSYMSSQKDYSYYLDNRLKDERISQGPKEPQGFHFTNSNPAVSAFHSFPNLQSEQLFSRNHTTDSHKQTVATDSHEGLTENREPDSVDEKITFPSDIDPQVFYELPEAVQKELLAEWKRAGSDFHIGHK
B2: in data set [1], the Km stood at 93 ± 14 µM, the kcat was determined as 0.00102 ± 6.67e-05 s⁻¹ and the kcat/Km was determined as 10.8 ± 1 M⁻¹ s⁻¹. Further, in data set [2], the Km stood at 46 ± 2 µM, the kcat was found to be 0.0019 ± 3.33e-05 s⁻¹ and the kcat/Km is 41.7 ± 1.67 M⁻¹ s⁻¹. In data set [3], the Km turned out to be 2.6 ± 0.4 µM, the kcat amounted to 0.133 ± 0.01 s⁻¹ and the kcat/Km amounted to 51200 ± 4500 M⁻¹ s⁻¹.

B3: pol κ (Homo sapiens) (protein)
chain: MDSTKEKCDSYKDDLLLRMGLNDNKAGMEGLDKEKINKIIMEATKGSRFYGNELKKEKQVNQRIENMMQQKAQITSQQLRKAQLQVDRFAMELEQSRNLSNTIVHIDMDAFYAAVEMRDNPELKDKPIAVGSMSMLSTSNYHARRFGVRAAMPGFIAKRLCPQLIIVPPNFDKYRAVSKEVKEILADYDPNFMAMSLDEAYLNITKHLEERQNWPEDKRRYFIKMGSSVENDNPGKEVNKLSEHERSISPLLFEESPSDVQPPGDPFQVNFEEQNNPQILQNSVVFGTSAQEVVKEIRFRIEQKTTLTASAGIAPNTMLAKVCSDKNKPNGQYQILPNRQAVMDFIKDLPIRKVSGIGKVTEKMLKALGIITCTELYQQRALLSLLFSETSWHYFLHISLGLGSTHLTRDGERKSMSVERTFSEINKAEEQYSLCQELCSELAQDLQKERLKGRTVTIKLKNVNFEVKTRASTVSSVVSTAEEIFAIAKELLKTEIDADFPHPLRLRLMGVRISSFPNEEDRKHQQRSIIGFLQAGNQALSATECTLEKTDKDKFVKPLEMSHKKSFFDKKRSERKWSHQDTFKCEAVNKQSFQTSQPFQVLKKKMNENLEISENSDDCQILTCPVCFRAQGCISLEALNKHVDECLDGPSISENFKMFSCSHVSATKVNKKENVPASSLCEKQDYEAHPKIKEISSVDCIALVDTIDNSSKAESIDALSNKHSKEECSSLPSKSFNIEHCHQNSSSTVSLENEDVGSFRQEYRQPYLCEVKTGQALVCPVCNVEQKTSDLTLFNVHVDVCLNKSFIQELRKDKFNPVNQPKESSRSTGSSSGVQKAVTRTKRPGLMTKYSTSKKIKPNNPKHTLDIFFK
B3: in data set [1], the Km came out at 160 ± 30 µM, the kcat was 0.00112 ± 0.0001 s⁻¹ and the kcat/Km was 6.83 M⁻¹ s⁻¹. Besides, in data set [2], the Km amounted to 64 ± 12 µM, the kcat stood at 0.000917 ± 6.67e-05 s⁻¹ and the kcat/Km stood at 14.3 M⁻¹ s⁻¹. In data set [3], the Km turned out to be 1.4 ± 0.1 µM and the kcat/Km was 53300 M⁻¹ s⁻¹.

A word on the Km: it is the substrate concentration at which the rate is half of its maximum. By kcat is commonly meant the maximal rate divided by the concentration of active sites. Usually kcat/Km stands for the second-order rate constant that governs catalysis at low substrate concentration.
